Reference: paper PMC6471467, “Comparing Gly^11/DAla^11-Replacement vs. the in-Situ Neprilysin-Inhibition Approach on the Tumor-targeting Efficacy of the ^111In-SB3/^111In-SB4 Radiotracer Pair” (Molecules, 2019)
Several values for one entry are separate records, joined by “and”; a condition that tells them apart may be missing. Identical values can stand only once. Like-named read-outs stand apart in the source and are kept apart here. Peptide text beside a SMILES is read from it.

Key:
GRPR = GRPR (Homo sapiens, UniProt P30550); test: biochemical
Sequence of GRPR (P30550 whole entry): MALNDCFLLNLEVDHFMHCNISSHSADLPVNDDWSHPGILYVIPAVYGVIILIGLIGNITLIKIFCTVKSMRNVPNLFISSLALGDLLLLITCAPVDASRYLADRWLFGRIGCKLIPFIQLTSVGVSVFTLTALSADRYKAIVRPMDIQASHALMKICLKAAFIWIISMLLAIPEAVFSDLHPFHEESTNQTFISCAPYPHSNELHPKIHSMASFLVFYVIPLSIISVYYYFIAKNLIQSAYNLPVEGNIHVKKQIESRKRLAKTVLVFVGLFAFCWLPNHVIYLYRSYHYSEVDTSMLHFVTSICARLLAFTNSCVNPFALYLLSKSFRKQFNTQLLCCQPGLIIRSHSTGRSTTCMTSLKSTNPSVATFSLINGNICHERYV
Method: Human androgen-independent prostate adenocarcinoma PC-3 cells endogenously expressing the human GRPR (LGC Promochem, Teddington, UK) were used in the present study [24]. Cells were cultured in Roswell Park Memorial Institute (RPMI)-1640 medium, supplemented with 10% heat-inactivated fetal bovine serum (FBS), 100 U/mL penicillin and 100 µg/mL streptomycin, and kept in a controlled humidified atmosphere containing 5% CO2 at 37 °C. Passages were performed weekly using a trypsin/EDTA (0.05%/0.02% w/v) solution. All culture media were purchased from Gibco BRL, Life Technologies and supplements were provided by Biochrom KG Seromed.
For the assay, triplicates per concentration point (concentration range: 10^−13–10^−6 M) of each test peptide were incubated together with the radioligand (~40,000 cpm per assay tube, at a 50 pM concentration) in PC-3 cell-membrane homogenates in a total volume of 300 μL binding buffer (BB, 50 mM HEPES pH 7.4, 1% BSA, 5.5 mM MgCl2, 35 μM bacitracin) for 1 h at 22 °C in an Incubator-Orbital Shaker (MPM Instr. SrI, Italy). Binding was interrupted by ice-cold washing buffer (WB, 10 mM HEPES pH 7.4, 150 mM NaCl) and rapid filtration (Whatman GF/B filters presoaked in BB) on a Brandel Cell Harvester (Adi Hassel Ing. Büro, Munich, Germany). Filters were washed with ice-cold WB and counted in an automatic well-type gamma counter (NaI(Tl) 3´´-crystal, Cobra Packard Auto-Gamma 5000 series instrument). The half maximal inhibitory concentration (IC50) values were calculated using nonlinear regression according to a one-site model applying the PRISM 2 program (Graph Pad Software, San Diego, CA) and represent the mean±sd from three independent experiments performed in triplicate.

[1] = Biodistribution in SCID mice bearing PC-3 xenografts; type: in vivo; conditions: female, mouse, pancreas, total radioactivity, average ± sd; for tissue uptake at 4 h: 4 h pi; for tissue uptake at 24 h: 24 h pi, n = 4, read-out: Pancreatic uptake, 24 h pi
Method: A suspension containing freshly harvested human PC-3 cells (≈150 μL of a ≈1.2 × 10^7 cells) was subcutaneously injected in the flanks of female SCID mice (15 ± 3 g, six weeks of age at the day of arrival, NCSR “Demokritos” Animal House Facility).
Animals were euthanized at 4 and 24 h pi and dissected; samples of blood, tumors and organs of interest were collected, weighed and measured for radioactivity in the gamma counter. Intestines and stomach were not emptied of their contents. Data was calculated as percent injected dose per gram tissue (%ID/g) with the aid of standard solutions and represent mean values±sd, n = 4.

[2] = In vivo stability in peripheral mouse blood (radio-HPLC); set-up: species or system mice; conditions: blood 5 min pi; for Intact radiotracer in mouse blood, representative radiochromatogram, PA-coinjection: coinjection of 300 µg phosphoramidon (PA), HPLC system 2, single representative sample (Figure 3c,d); for Intact radiotracer in mouse blood, representative radiochromatogram: without PA-coinjection, HPLC system 2, single representative sample (Figure 3a,b); for Intact radiotracer in peripheral mouse blood: healthy male Swiss albino mice, iv 3 nmol peptide, without PA, radio-HPLC, mean ± sd, n = 3
Method: For stability experiments (approved protocol # 1609, Prefecture of Attica), healthy male Swiss albino mice (30 ± 5 g, NCSR “Demokritos” Animal House Facility) were used. The radioligand, ^111In-SB3 or ^111In-SB4, was injected as a 100 μL bolus (11–22 MBq, 3 nmol total peptide) in the tail vein together with injection solution (100 µL; control) or with a phosphoramidon (PA)-solution (100 µL injection solution containing 300 µg PA). Animals were euthanized and blood (0.5–1 mL) was directly withdrawn from the heart and transferred in a pre-chilled EDTA-containing Eppendorf tube on ice. Blood samples were centrifuged for 10 min at 2000 g/4 °C and plasma was collected. After addition of an equal volume of ice-cold MeCN the mixture was centrifuged for 10 min at 15,000 g/4 °C. The supernatant was concentrated under a N2-flux at 40 °C to 0.05-0.1 mL, diluted with saline (0.4 mL), filtered through a 0.22 μm Millex GV filter (Millipore, Milford, USA) and analyzed by RP-HPLC. The Symmetry Shield RP18 (5 μm, 3.9 mm × 20 mm) column was eluted at a flow rate of 1.0 mL/min with the following linear gradient (system 2): 0% B at 0 min to 10% B in 10 min and then in 40 min to 30% B; A = 20 mM ammonium acetate and B = MeCN. The tR of the intact radiopeptide was determined by coinjection with the ^111In-SB3 or ^111In-SB4 reference in the HPLC.

[3] = small library of ^99mTc-labeled analogs with acyclic tetraamine chelator; cited from earlier work
Source text: Earlier work on the development of GRPR-antagonists generated a solid body of structure-activity relationships data, pinpointing at important factors for sustained in vivo action. […] Metabolic stability could be enhanced by suitable structural modifications, including DAla^11/Gly^11 in BBN-based or DAla^24/Gly^24 in GRP-based peptide ligands.

[4] = iv, with phosphoramidon (PA), 300 µg co-injected (NEP-inhibition), coinjection of 300 µg PA, n = 4, read-out: Pancreatic uptake, 4 h pi, PA-coinjection
[5] = iv 10 pmol peptide, control, n = 4, read-out: Pancreatic uptake, 4 h pi

| Compound | IC50 (GRPR) | tissue uptake at 4 h [1, 4] | tissue uptake at 24 h ([1]; iv 10 pmol peptide) | tissue uptake at 4 h [1, 5] | Intact radiotracer in mouse blood, representative radiochromatogram, PA-coinjection [2] | Intact radiotracer in mouse blood, representative radiochromatogram [2] | Intact radiotracer in peripheral mouse blood [2] | Metabolic stability, rank within the library [3] |
| --- | --- | --- | --- | --- | --- | --- | --- | --- |
| CCNC(=O)[C@H](CC(C)C)NC(=O)[C@H](Cc1c[nH]cn1)NC(=O)CNC(=O)[C@@H](NC(=O)[C@H](C)NC(=O)[C@H](Cc1c[nH]c2ccccc12)NC(=O)[C@H](CCC(N)=O)NC(=O)[C@@H](Cc1ccccc1)NC(=O)COCC(=O)Nc1ccc(CNC(=O)CN2CCN(CC(=O)O)CCN(CC(=O)O)CCN(CC(=O)O)CC2)cc1)C(C)C [SB3] | 4.6 ± 0.3 nM |  |  |  |  |  |  |  |
| CCNC(=O)[C@H](CC(C)C)NC(=O)[C@H](Cc1c[nH]cn1)NC(=O)[C@@H](C)NC(=O)[C@@H](NC(=O)[C@H](C)NC(=O)[C@H](Cc1c[nH]c2ccccc12)NC(=O)[C@H](CCC(N)=O)NC(=O)[C@@H](Cc1ccccc1)NC(=O)COCC(=O)Nc1ccc(CNC(=O)CN2CCN(CC(=O)O)CCN(CC(=O)O)CCN(CC(=O)O)CC2)cc1)C(C)C [SB4, DOTA-p-aminomethylaniline-diglycolic acid-DPhe-Gln-Trp-Ala-Val-DAla-His- Leu-NHEt] (HELM PEPTIDE1{[O=C(O)CN1CCN(CC(=O)O)CCN(CC(=O)NCc2ccc(NC(=O)COCC(=O)[*:2])cc2)CCN(CC(=O)O)CC1].[dF].Q.W.A.V.[dA].H.L.[CCN[*:1]]}$$$$V2.0) | 11.2 nM and 10.7 nM |  |  |  |  |  |  |  |
| CCNC(=O)[C@H](CC(C)C)NC(=O)[C@H](Cc1c[nH]cn1)NC(=O)CNC(=O)[C@@H](NC(=O)[C@H](C)NC(=O)[C@H](Cc1c[nH]c2ccccc12)NC(=O)[C@H](CCC(N)=O)NC(=O)[C@@H](Cc1ccccc1)NC(=O)COCC(=O)Nc1ccc(CNC(=O)CN2CCN(CC(=O)O)CCN(CC(=O)O)CCN(CC(=O)O)CC2)cc1)C(C)C [^111In-SB3, metal not drawn] |  | 33.1 ± 6.2 %ID/g | 0.6 ± 0.1 %ID/g | 3.5 ± 0.4 %ID/g | 98.9 % intact radiotracer | 55 % intact radiotracer | 56 ± 2 % intact |  |
| CCNC(=O)[C@H](CC(C)C)NC(=O)[C@H](Cc1c[nH]cn1)NC(=O)[C@@H](C)NC(=O)[C@@H](NC(=O)[C@H](C)NC(=O)[C@H](Cc1c[nH]c2ccccc12)NC(=O)[C@H](CCC(N)=O)NC(=O)[C@@H](Cc1ccccc1)NC(=O)COCC(=O)Nc1ccc(CNC(=O)CN2CCN(CC(=O)O)CCN(CC(=O)O)CCN(CC(=O)O)CC2)cc1)C(C)C [^111In-SB4, metal not drawn] (HELM PEPTIDE1{[O=C(O)CN1CCN(CC(=O)O)CCN(CC(=O)NCc2ccc(NC(=O)COCC(=O)[*:2])cc2)CCN(CC(=O)O)CC1].[dF].Q.W.A.V.[dA].H.L.[CCN[*:1]]}$$$$V2.0) |  | 4.9 ± 0.7 %ID/g | 0.1 %ID/g | 1.6 ± 0.8 %ID/g | 99.7 % intact radiotracer | 77 % intact radiotracer | 80 ± 3 % intact |  |
| ^99mTc-[N4-p-aminomethylaniline-diglycolic acid-DPhe^6,DAla^11,Leu^13-NHEt]BBN(6-13) |  |  |  |  |  |  |  | highest metabolic stability |
